# In publication PMC5059767:
# Legend:
# mCherry-ARHGAP36 = test: FLIM-FRET (Venus-YFP donor fluorescence lifetime) in MDCK cells; settings: n≥4 each; mean±s.d.; donor alone (PKAC-YFP) est. 3.0 ns; parent: est. 2.4; read off a plot
# [1] = target: endogenous PKAC (HEK293T) (human (endogenous in HEK293T)) (UniProt P17612)
# [2] = target: PKAC-YFP (mouse PKAC-Venus-YFP), in MDCK cells (UniProt P05132); test: FLIM-FRET (Venus-YFP donor fluorescence lifetime) in MDCK cells; settings: n≥4 each; mean±s.d.; donor alone (PKAC-YFP) est. 3.0 ns; parent: est. 2.4; read off a plot
# ARHGAP36-N2 (118–194), sequence (Q6ZRI8 149-225): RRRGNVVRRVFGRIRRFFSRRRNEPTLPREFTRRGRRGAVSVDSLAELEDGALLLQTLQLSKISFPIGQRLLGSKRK
reduction in mean FRET emission ratio of the PKA biosensor AKAR4-NES in HEK293T cells stimulated with Forskolin and IBMX [1],Substance,further results
,"PKAC-YFP (mouse PKAC-Venus-YFP), in MDCK cells (from UniProt P05132) E127A; E170A; E230A",response (mCherry-ARHGAP36): 3 ns
25.7%,mCherry-ARHGAP36 (natural protein),
25.1%,ARHGAP36-N2 (118–194) (from UniProt Q6ZRI8-2 118-194) (domain or fragment),
,mCherry-ARHGAP36 R153D; R154D; V157D,response [2]: 3 ns
